Columns and labels:
[1] = IRBP-SEAP reporter in HeLa, normalised to EV; settings: glycan lost; control: WT OTX2, untreated
[2] = DSP crosslink, soluble vs pellet fractions, WB, HeLa; settings: control: DMSO vehicle

| Substance | other: transcriptional activity [1] | other: solubility (aggregation) ([2]; glycan lost) | other: solubility (aggregation) ([2]; glycan gained) |
| --- | --- | --- | --- |
| OTX2: OSMI4 | no change | decreases | – |
| OTX2: Thiamet-G | – | – | increases |
